“Also recorded” adds a separate entry of the source.
B1: FMOD: fibromodulin protein; an example is SEQ ID NO:1 (Genebank NM 002023) (protein, listed as Homo sapiens)
chain: WTSLLLLAGLFSLSQAQYEDDPHWWFHYLRSQQSTYYDPYDPYPYETYEPYPYGVDEGPAYTYGSPSPPDPRDCPQECDCPPNFPTAMYCDNRNLKYLPFVPSRMKYVYFQNNQITSIQEGVFDNATGLLWIALHGNQITSDKVGRKVFSKLRHLERLYLDHNNLTRMPGPLPRSLRELHLDHNQISRVPNNALEGLENLTALYLQHNEIQEVGSSMRGLRSLILLDLSYNHLRKVPDGLPSALEQLYMEHNNVYTVPDSYFRGAPKLLYVRLSHNSLTNNGLASNTFNSSSLLELDLSYNQLQKIPPVNTNLENLYLQGNRINEFSISSFCTVVDVVNFSKLQVLRLDGNEIKRSAMPADAPLCLRLASLIEI

How the values were obtained:
myofibroblasts = assay: myofibroblast apoptosis; type: cell-based; conditions: for myofibroblast apoptosis: N=6
Description: N=6. *, P<0.05; **, P<0.05.
(§1) Taken together, FMOD not only promotes TGF-β1-induced myofibroblast differentiation and contractility, but also accelerates myofibroblast clearance—resulting in lack of myofibroblast persistence in remodeling stage of FMOD-treated wounds.

RDF = assay: in vitro collagen gel contraction; type: cell-based, rat; conditions: FMOD alone; N=6
Description: (§2) Activity level of myofibroblast is related to the activity of fibromodulin. Fibromodulin can promote myofibroblast differentiation and apoptosis.

adult rat wounds [1] = assay: PCR array assay of gene expression in adult rat wounds; type: in vivo; conditions: for expression of α-SMA in wounds: FMOD-treated adult rat wounds
Description: Gene expression is normalized to unwounded skin (dashed lines). N=9 wounds from 9 animals. **, P<0.05.
Gene expression is normalized to unwounded skin (dashed lines). N=9 wounds from 9 animals. **, P<0.05

adult rat wounds [2] = assay: α-SMA-positive myofibroblasts in wounds; type: in vivo; conditions: FMOD-treated wounds; day 14 post injury
Description: as §1

adult rat skin wounds = assay: scar formation and tensile strength of adult rat skin wounds; type: in vivo
Description: as §1

[3] = system: rat dermal fibroblast (RDF); assay: western blotting and qRT-PCR of α-SMA expression in rat dermal fibroblasts; type: cell-based
Description: Data are normalized to untreated RDFs at time 0 (dash lines). N=3. *, P<0.05.
as §2

myofibroblast = assay: immunofluorescent (IF) staining for α-SMA stress fibers, myofibroblast differentiation in vitro; type: cell-based; conditions: FMOD combined with TGF-β1
Description: Formation of stress fibers stained strongly for α-SMA are indicated by yellow arrows. Scale bar=100 μm.
as §2

Molecule	interleukin (IL)-1β-mediated apoptosis in myofibroblasts (myofibroblasts; effect of TGF-β1)	RDF contraction in collagen gel (RDF)	expression of α-SMA in wounds (adult rat wounds [1]; early 3-day time-point)	expression of α-SMA in wounds (adult rat wounds [1]; late 7- and 14-day time-points)	IL-1β expression (adult rat wounds [1]; day 3 and 7 adult rat wounds)	IL-10 expression (adult rat wounds [1]; day 3 and 7 adult rat wounds, PCR array)	myofibroblast apoptosis (myofibroblasts; FMOD alone)	myofibroblast apoptosis (myofibroblasts; in the presence of TGF-β1)	α-SMA-positive myofibroblasts (adult rat wounds [2])	collagen architecture (adult rat skin wounds; adult rat primary closure wounds)	scar size (adult rat skin wounds; adult rat skin wounds, doses □ 0.4 mg/ml, day 14 post injury, compared to control)	tensile strength (adult rat skin wounds; adult rat wounds)	α-smooth muscle actin (α-SMA) expression ([3]; FMOD alone, western blotting and qRT-PCR, N=3)	TGF-β1-induced α-SMA expression ([3]; FMOD in the presence of TGF-β1, N=3)	TGF-β1-induced α-SMA expression ([3]; FMOD in the presence of TGF-β1, N=3, listed as Fibromodulin)	myofibroblast differentiation and contractility in vitro (myofibroblast)
TGF-β1: transforming growth factor (TGF)-β1, myofibroblast differentiation inducing agent	completely blocked	–	–	–	–	–	–	–	–	–	–	–	–	–	–	–
B1	–	minimal effects	significantly upregulated	reduced	significantly stimulated	significantly stimulated	promoted myofibroblast apoptosis as effectively as IL-1β; also recorded: induces myofibroblast apoptosis as effectively as IL-10	promoted apoptosis even in the presence of TGF-1β	diminished; also recorded: decreased	more organized collagen architecture	significant smaller scar; also recorded: significantly reduces	stronger tensile strength; also recorded: increasing tensile strength in a dose dependent manner	no significant effect	significantly enhances	significantly promoted	significantly enhanced
